Test results published in publication PMC6098246, “Zinc(II) binding on human wild-type ISCU and Met140 variants modulates NFS1 desulfurase activity” (Biochimie, 2018).

Legend:
[1] = molecular target: T1, NFS1-ISD11-ACP (SDA) complex (human | E. coli, UniProt Q9Y697 56-457; Q9HD34 1-91; P0A6A8 1-78); assay: BLI; biotinylated ISCU on streptavidin sensors, SDA 10 uM to 1.56 nM in solution; 25 °C; 50 mM HEPES pH 7.5, 200 mM NaCl, 5% glycerol, 2 mM TCEP, 5 mM DTT, 0.5 mg/mL BSA, with 100 uM ZnCl2 (zinc-bound ISCU); Kd from response vs. [NFS1], one site-specific binding fit; settings: both partners purified
T1 construct: human cysteine desulfurase NFS1, non-tagged, construct Δ1-55; human ISD11 (LYRM4), His-tagged; E. coli acyl carrier protein (ACP) of the expression host, co-purified with NFS1-ISD11; PLP was added during the purification; also called NFS1-ISD11-ACP desulfurase complex; NFS1-ISD11 complex; source: co-purified with E. coli ACP; copies: + +
T1 sequence (Q9Y697 56-457, chain 1 of 3): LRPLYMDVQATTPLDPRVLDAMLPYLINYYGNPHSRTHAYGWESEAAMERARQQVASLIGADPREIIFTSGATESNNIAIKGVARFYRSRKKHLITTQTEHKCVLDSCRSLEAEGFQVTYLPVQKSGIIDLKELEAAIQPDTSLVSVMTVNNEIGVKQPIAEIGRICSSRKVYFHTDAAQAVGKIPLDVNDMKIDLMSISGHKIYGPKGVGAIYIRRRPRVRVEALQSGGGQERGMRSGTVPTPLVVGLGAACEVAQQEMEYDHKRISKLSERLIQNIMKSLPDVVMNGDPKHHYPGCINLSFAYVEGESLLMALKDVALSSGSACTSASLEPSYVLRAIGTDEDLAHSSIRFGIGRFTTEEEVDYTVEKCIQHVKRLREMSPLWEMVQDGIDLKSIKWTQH
T1 sequence (Q9HD34 whole entry, chain 2 of 3): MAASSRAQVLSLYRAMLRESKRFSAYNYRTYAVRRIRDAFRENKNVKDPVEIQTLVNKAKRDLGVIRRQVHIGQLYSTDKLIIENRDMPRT
T1 sequence (P0A6A8 whole entry, chain 3 of 3): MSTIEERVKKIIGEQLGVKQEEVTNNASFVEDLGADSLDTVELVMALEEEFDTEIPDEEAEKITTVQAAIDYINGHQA

[2] = molecular target: T1, NFS1-ISD11-ACP (SDA) complex; assay: BLI; biotinylated ISCU on streptavidin sensors, SDA 10 uM to 1.56 nM in solution; 25 °C; 50 mM HEPES pH 7.5, 200 mM NaCl, 5% glycerol, 2 mM TCEP, 5 mM DTT, 0.5 mg/mL BSA, with 300 uM EDTA (zinc-depleted ISCU); Kd from response vs. [NFS1], one site-specific binding fit; settings: both partners purified

B1: biotinylated human ISCU wild-type (Δ1-34) (natural protein, UniProt Q9H1K1 35-167, looked up)
chain: YHKKVVDHYENPRNVGSLDKTSKNVGTGLVGAPACGDVMKLQIQVDEKGKIVDARFKTFGCGSAIASSSLATEWVKGKTVEEALTIKNTDIAKELCLPPVKLHCSMLAEDAIKAALADYKLKQEPKKGEAEKK
modifications: biotin (site not stated)
notes: human ISCU, construct Δ1-34 of the 167-aa precursor (133-aa mature protein without the mitochondrial signal peptide); the two conditions are two assays; Measured mass of the apo-protein 14604 Da; also called ISCUWT; WT; source: E. coli BL21 (DE3)-R3-pRARE2, purified (Ni Sepharose, Superdex S75, His-tag removed by TEV)
Kd [1]: 160 nM
Kd [2]: 87.8 nM

B2: biotinylated human ISCU M140L (Δ1-34) (natural protein, UniProt Q9H1K1 35-167, looked up)
chain: YHKKVVDHYENPRNVGSLDKTSKNVGTGLVGAPACGDVMKLQIQVDEKGKIVDARFKTFGCGSAIASSSLATEWVKGKTVEEALTIKNTDIAKELCLPPVKLHCSLLAEDAIKAALADYKLKQEPKKGEAEKK
modifications: biotin (site not stated)
notes: human ISCU, construct Δ1-34 of the 167-aa precursor, variant M140L; source: E. coli BL21 (DE3)-R3-pRARE2, purified (Ni Sepharose, Superdex S75, His-tag removed by TEV)
Kd [1]: 181 nM
Kd [2]: 110 nM

B3: biotinylated human ISCU M140V (Δ1-34) (natural protein, UniProt Q9H1K1 35-167, looked up)
chain: YHKKVVDHYENPRNVGSLDKTSKNVGTGLVGAPACGDVMKLQIQVDEKGKIVDARFKTFGCGSAIASSSLATEWVKGKTVEEALTIKNTDIAKELCLPPVKLHCSVLAEDAIKAALADYKLKQEPKKGEAEKK
modifications: biotin (site not stated)
notes: human ISCU, construct Δ1-34 of the 167-aa precursor, variant M140V; source: E. coli BL21 (DE3)-R3-pRARE2, purified (Ni Sepharose, Superdex S75, His-tag removed by TEV)
Kd [1]: 218 nM
Kd [2]: 85.5 nM

B4: biotinylated human ISCU M140I (Δ1-34) (natural protein, UniProt Q9H1K1 35-167, looked up)
chain: YHKKVVDHYENPRNVGSLDKTSKNVGTGLVGAPACGDVMKLQIQVDEKGKIVDARFKTFGCGSAIASSSLATEWVKGKTVEEALTIKNTDIAKELCLPPVKLHCSILAEDAIKAALADYKLKQEPKKGEAEKK
modifications: biotin (site not stated)
notes: human ISCU, construct Δ1-34 of the 167-aa precursor, variant M140I; source: E. coli BL21 (DE3)-R3-pRARE2, purified (Ni Sepharose, Superdex S75, His-tag removed by TEV)
Kd [1]: 194 nM
Kd [2]: 97.3 nM
